The record followed here is patent US20190233493A1 (Sanofi, published 2019).

*1 amine or outer side, *2 acyl side, *3 side chain or, on linkers, in order; H or OH if unused. Primed or numbered codes have the meaning given here. Side-chain parts run from the residue outwards. [ ]: non-standard residue; d: D form. The star is where a group is joined. TTDS″ = 4-[3-[2-[2-(3-aminopropoxy)ethoxy]ethoxy]propylamino]-4-oxo-butanoyl; TtdDga = O=C(COCC(=O)[*:2])NCCCOCCOCCOCCCN[*:1]; Docosanoyl = CCCCCCCCCCCCCCCCCCCCCC(=O)*; Arachidoyl = CCCCCCCCCCCCCCCCCCCC(=O)*; γGlu = O=C(O)[C@H](CCC(=O)[*:2])N[*:1]; Pentadecanoyl = CCCCCCCCCCCCCCC(=O)*; Stearoyl = CCCCCCCCCCCCCCCCCC(=O)*; Palmitoyl = CCCCCCCCCCCCCCCC(=O)*; Myristoyl = CCCCCCCCCCCCCC(=O)*; αMeK = C[C@](N)(CCCCN)C(=O)O; Nle = CCCC[C@H](N)C(=O)O; PEG2′ = PEG2 spacer unit; Aib = CC(C)(N)C(=O)O

This test addresses T1, RXFP1 receptor (UniProt Q9HBX9 1-757, limits assumed).
T1 sequence (looked up): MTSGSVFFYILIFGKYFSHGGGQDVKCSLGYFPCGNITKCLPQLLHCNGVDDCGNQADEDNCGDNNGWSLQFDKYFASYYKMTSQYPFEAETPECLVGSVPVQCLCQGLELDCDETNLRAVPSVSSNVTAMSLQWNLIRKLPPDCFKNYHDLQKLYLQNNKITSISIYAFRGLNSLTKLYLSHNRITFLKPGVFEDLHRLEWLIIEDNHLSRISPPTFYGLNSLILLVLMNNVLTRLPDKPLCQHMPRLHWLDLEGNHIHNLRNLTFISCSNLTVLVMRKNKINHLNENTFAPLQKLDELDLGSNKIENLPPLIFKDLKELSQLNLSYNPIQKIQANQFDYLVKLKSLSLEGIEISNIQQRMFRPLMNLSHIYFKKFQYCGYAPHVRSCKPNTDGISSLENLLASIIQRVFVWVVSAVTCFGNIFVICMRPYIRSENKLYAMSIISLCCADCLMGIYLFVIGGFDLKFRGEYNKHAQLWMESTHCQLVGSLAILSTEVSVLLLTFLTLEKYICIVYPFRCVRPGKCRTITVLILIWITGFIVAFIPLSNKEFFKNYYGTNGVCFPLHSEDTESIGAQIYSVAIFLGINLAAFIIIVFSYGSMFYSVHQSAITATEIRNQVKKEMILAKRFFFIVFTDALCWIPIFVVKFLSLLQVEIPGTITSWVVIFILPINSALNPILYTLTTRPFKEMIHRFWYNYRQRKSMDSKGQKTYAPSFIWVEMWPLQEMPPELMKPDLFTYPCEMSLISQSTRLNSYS
Put plainly: cell-based or functional assay.

B1: peptide of SEQ ID NO: 171 (peptide)
peptide: Ac-LEGREKVRAK(Ac)I[Aib][Aib]EG[Nle]STWS[Aib]RKK(Ac)K([PEG2′-PEG2′-PEG2′-γGlu-γGlu-γGlu-Arachidoyl])-NH2
B1: the “EC50 (nM), OVCAR 5 cells (cAMP)” value was 0.18 nM and the “EMax, OVCAR 5 cells (cAMP)” value came out at 83%.

B2: peptide of SEQ ID NO: 174 (peptide)
peptide: Ac-LEGREKVRAQI[Aib][Aib]EG[Nle]STWS[Aib]RKKK([PEG2′-PEG2′-PEG2′-γGlu-γGlu-γGlu-Stearoyl])-NH2
B2: the “EMax, OVCAR 5 cells (cAMP)” value turned out to be 88%.

B3: peptide of SEQ ID NO: 178 (peptide)
peptide: Ac-LEGREKVRAK(Ac)I[Aib][Aib]EG[Nle]STWS[Aib]RKK(Ac)K([PEG2′-PEG2′-PEG2′-γGlu-γGlu-γGlu-Myristoyl])-NH2
As to B3, the “EC50 (nM), OVCAR 5 cells (cAMP)” value was 17.6 nM and the “EMax, OVCAR 5 cells (cAMP)” value is 93%.

B4: peptide of SEQ ID NO: 167 (peptide)
peptide: Ac-LEGREKVRAK(Ac)I[Aib][Aib]EG[Nle]STFS[αMeK]RAK(Ac)[PEG2′][PEG2′][PEG2′][PEG2′]K([γGlu-γGlu-γGlu-γGlu-Pentadecanoyl])-NH2
Turning to B4, the “EC50 (nM), OVCAR 5 cells (cAMP)” value was 0.05 nM and the “EMax, OVCAR 5 cells (cAMP)” value turned out to be 93%.

B5: peptide of SEQ ID NO: 166 (peptide)
peptide: Ac-LEGREKVRAK(Ac)I[Aib][Aib]EG[Nle]STWS[Aib]RKK(Ac)K([TTDS″-TTDS″-γGlu-γGlu-γGlu-Palmitoyl])-NH2
As to B5, the “EC50 (nM), OVCAR 5 cells (cAMP)” value stood at 0.26 nM and the “EMax, OVCAR 5 cells (cAMP)” value is 92%.

B6: peptide of SEQ ID NO: 176 (peptide)
peptide: Ac-LEGREKVRAK(Ac)I[Aib][Aib]EGQSTWS[Aib]RKK(Ac)[TtdDga]K([γGlu-γGlu-γGlu-Palmitoyl])-NH2
SMILES: CCCCCCCCCCCCCCCC(=O)N[C@@H](CCC(=O)N[C@@H](CCC(=O)N[C@@H](CCC(=O)NCCCC[C@H](NC(=O)COCC(=O)NCCCOCCOCCOCCCNC(=O)[C@H](CCCCNC(C)=O)NC(=O)[C@H](CCCCN)NC(=O)[C@H](CCCNC(=N)N)NC(=O)C(C)(C)NC(=O)[C@H](CO)NC(=O)[C@H](Cc1c[nH]c2ccccc12)NC(=O)[C@@H](NC(=O)[C@H](CO)NC(=O)[C@H](CCC(N)=O)NC(=O)CNC(=O)[C@H](CCC(=O)O)NC(=O)C(C)(C)NC(=O)C(C)(C)NC(=O)[C@@H](NC(=O)[C@H](CCCCNC(C)=O)NC(=O)[C@H](C)NC(=O)[C@H](CCCNC(=N)N)NC(=O)[C@@H](NC(=O)[C@H](CCCCN)NC(=O)[C@H](CCC(=O)O)NC(=O)[C@H](CCCNC(=N)N)NC(=O)CNC(=O)[C@H](CCC(=O)O)NC(=O)[C@H](CC(C)C)NC(C)=O)C(C)C)[C@@H](C)CC)[C@@H](C)O)C(N)=O)C(=O)O)C(=O)O)C(=O)O
With B6, the “EC50 (nM), OVCAR 5 cells (cAMP)” value turned out to be 3 nM and the “EMax, OVCAR 5 cells (cAMP)” value was 90%.

B7: peptide of SEQ ID NO: 165 (peptide)
peptide: Ac-LEGREKVRAK(Ac)I[Aib][Aib]EG[Nle]STWS[Aib]RKK(Ac)K([PEG2′-PEG2′-γGlu-γGlu-PEG2′-γGlu-Palmitoyl])-NH2
Regarding B7, the “EC50 (nM), OVCAR 5 cells (cAMP)” value was determined as 0.38 nM and the “EMax, OVCAR 5 cells (cAMP)” value amounted to 105%.

B8: peptide of SEQ ID NO: 170 (peptide)
peptide: Ac-LEGREKVRAK(Ac)I[Aib][Aib]EGQSTFS[αMeK]RAK(Ac)[PEG2′][PEG2′][PEG2′][PEG2′]K([γGlu-γGlu-γGlu-γGlu-Palmitoyl])-NH2
As to B8, the “EC50 (nM), OVCAR 5 cells (cAMP)” value turned out to be 0.01 nM and the “EMax, OVCAR 5 cells (cAMP)” value is 87%.

B9: peptide of SEQ ID NO: 172 (peptide)
peptide: Ac-LEGREKVRAK(Ac)I[Aib][Aib]EG[Nle]STFS[αMeK]RAK(Ac)[PEG2′][PEG2′][PEG2′][PEG2′]K([γGlu-γGlu-γGlu-γGlu-Myristoyl])-NH2
On to B9, for which the “EC50 (nM), OVCAR 5 cells (cAMP)” value stood at 0.56 nM and the “EMax, OVCAR 5 cells (cAMP)” value is 95%.

B10: peptide of SEQ ID NO: 175 (peptide)
peptide: Ac-LEGREKVRAK(Ac)I[Aib][Aib]EG[Nle]STWS[Aib]RKK(Ac)[TtdDga]K([γGlu-γGlu-γGlu-Palmitoyl])-NH2
SMILES: CCCCCCCCCCCCCCCC(=O)N[C@@H](CCC(=O)N[C@@H](CCC(=O)N[C@@H](CCC(=O)NCCCC[C@H](NC(=O)COCC(=O)NCCCOCCOCCOCCCNC(=O)[C@H](CCCCNC(C)=O)NC(=O)[C@H](CCCCN)NC(=O)[C@H](CCCNC(=N)N)NC(=O)C(C)(C)NC(=O)[C@H](CO)NC(=O)[C@H](Cc1c[nH]c2ccccc12)NC(=O)[C@@H](NC(=O)[C@H](CO)NC(=O)[C@H](CCCC)NC(=O)CNC(=O)[C@H](CCC(=O)O)NC(=O)C(C)(C)NC(=O)C(C)(C)NC(=O)[C@@H](NC(=O)[C@H](CCCCNC(C)=O)NC(=O)[C@H](C)NC(=O)[C@H](CCCNC(=N)N)NC(=O)[C@@H](NC(=O)[C@H](CCCCN)NC(=O)[C@H](CCC(=O)O)NC(=O)[C@H](CCCNC(=N)N)NC(=O)CNC(=O)[C@H](CCC(=O)O)NC(=O)[C@H](CC(C)C)NC(C)=O)C(C)C)[C@@H](C)CC)[C@@H](C)O)C(N)=O)C(=O)O)C(=O)O)C(=O)O
In the case of B10, the “EC50 (nM), OVCAR 5 cells (cAMP)” value turned out to be 2.21 nM and the “EMax, OVCAR 5 cells (cAMP)” value worked out at 87%.

B11: peptide of SEQ ID NO: 168 (peptide)
peptide: Ac-LEGREKVRAK(Ac)I[Aib][Aib]EG[Nle]STFSXRAK(Ac)[PEG2′][PEG2′][PEG2′][PEG2′][γGlu][γGlu]K([γGlu-γGlu-Pentadecanoyl])-NH2
modifications: not fully specified (some residues); printed as Ac-L-E-G-R-E-K-V-R-A-K(Ac)-I-Aib-Aib-E-G-Nle-S-T-F-S-Mly-R-A-K(Ac)-PEG2-PEG2-PEG2-PEG2-gE-gE-K(gE-gE-Penta)-NH2
Consider B11, for which the “EC50 (nM), OVCAR 5 cells (cAMP)” value was 0.06 nM and the “EMax, OVCAR 5 cells (cAMP)” value stood at 91%.

B12: peptide of SEQ ID NO: 177 (peptide)
peptide: Ac-LEGREKVRAQI[Aib][Aib]EGQSTWS[Aib]RKK(Ac)[TtdDga][TtdDga]K([γGlu-γGlu-γGlu-Palmitoyl])-NH2
SMILES: CCCCCCCCCCCCCCCC(=O)N[C@@H](CCC(=O)N[C@@H](CCC(=O)N[C@@H](CCC(=O)NCCCC[C@H](NC(=O)COCC(=O)NCCCOCCOCCOCCCNC(=O)COCC(=O)NCCCOCCOCCOCCCNC(=O)[C@H](CCCCNC(C)=O)NC(=O)[C@H](CCCCN)NC(=O)[C@H](CCCNC(=N)N)NC(=O)C(C)(C)NC(=O)[C@H](CO)NC(=O)[C@H](Cc1c[nH]c2ccccc12)NC(=O)[C@@H](NC(=O)[C@H](CO)NC(=O)[C@H](CCC(N)=O)NC(=O)CNC(=O)[C@H](CCC(=O)O)NC(=O)C(C)(C)NC(=O)C(C)(C)NC(=O)[C@@H](NC(=O)[C@H](CCC(N)=O)NC(=O)[C@H](C)NC(=O)[C@H](CCCNC(=N)N)NC(=O)[C@@H](NC(=O)[C@H](CCCCN)NC(=O)[C@H](CCC(=O)O)NC(=O)[C@H](CCCNC(=N)N)NC(=O)CNC(=O)[C@H](CCC(=O)O)NC(=O)[C@H](CC(C)C)NC(C)=O)C(C)C)[C@@H](C)CC)[C@@H](C)O)C(N)=O)C(=O)O)C(=O)O)C(=O)O
Turning to B12, the “EC50 (nM), OVCAR 5 cells (cAMP)” value came to 1.5 nM and the “EMax, OVCAR 5 cells (cAMP)” value was found to be 91%.

B13: peptide of SEQ ID NO: 173 (peptide)
peptide: Ac-LEGREKVRAK(Ac)I[Aib][Aib]EG[Nle]STWS[Aib]RKK(Ac)K([PEG2′-PEG2′-PEG2′-γGlu-γGlu-γGlu-Docosanoyl])-NH2
For the molecule B13, the “EC50 (nM), OVCAR 5 cells (cAMP)” value was found to be 0.19 nM and the “EMax, OVCAR 5 cells (cAMP)” value was 85%.

B14: peptide of SEQ ID NO: 18 (peptide)
peptide: Ac-LEGREKVRAK(Ac)I[Aib][Aib]EG[Nle]STWS[Aib]RKK(Ac)[TtdDga]K([γGlu-γGlu-γGlu-Stearoyl])-NH2
SMILES: CCCCCCCCCCCCCCCCCC(=O)N[C@@H](CCC(=O)N[C@@H](CCC(=O)N[C@@H](CCC(=O)NCCCC[C@H](NC(=O)COCC(=O)NCCCOCCOCCOCCCNC(=O)[C@H](CCCCNC(C)=O)NC(=O)[C@H](CCCCN)NC(=O)[C@H](CCCNC(=N)N)NC(=O)C(C)(C)NC(=O)[C@H](CO)NC(=O)[C@H](Cc1c[nH]c2ccccc12)NC(=O)[C@@H](NC(=O)[C@H](CO)NC(=O)[C@H](CCCC)NC(=O)CNC(=O)[C@H](CCC(=O)O)NC(=O)C(C)(C)NC(=O)C(C)(C)NC(=O)[C@@H](NC(=O)[C@H](CCCCNC(C)=O)NC(=O)[C@H](C)NC(=O)[C@H](CCCNC(=N)N)NC(=O)[C@@H](NC(=O)[C@H](CCCCN)NC(=O)[C@H](CCC(=O)O)NC(=O)[C@H](CCCNC(=N)N)NC(=O)CNC(=O)[C@H](CCC(=O)O)NC(=O)[C@H](CC(C)C)NC(C)=O)C(C)C)[C@@H](C)CC)[C@@H](C)O)C(N)=O)C(=O)O)C(=O)O)C(=O)O
For B14, the “EC50 (nM), OVCAR 5 cells (cAMP)” value came out at 0.41 nM and the “EMax, OVCAR 5 cells (cAMP)” value came to 83%.

B15: peptide of SEQ ID NO: 17 (peptide)
peptide: Ac-LEGREKVRAK(Ac)I[Aib][Aib]EG[Nle]STWS[αMeK]RKK(Ac)[PEG2′][PEG2′][PEG2′]K([γGlu-γGlu-γGlu-γGlu-Palmitoyl])-NH2
With B15, the “EC50 (nM), OVCAR 5 cells (cAMP)” value was determined as 0.17 nM and the “EMax, OVCAR 5 cells (cAMP)” value turned out to be 95%.
